Laboratory results from the supplement of paper PMC10065799, “High-throughput profiling of sequence recognition by tyrosine kinases and SH2 domains using bacterial peptide display” (eLife, 2023).

Legend:
AncSZ = assay: phosphorylation enrichment, bacterial display (enrichment ratio); higher = better substrate or ligand; peptides without Tyr show the background
EPHB1 = EPHB1 (UniProt P54762); assay: as above
EPHB2 = EPHB2 (UniProt P29323); assay: as above
FGFR1 = FGFR1 (UniProt P11362); assay: as above
FGFR3 = FGFR3 (UniProt P22607); assay: as above
Fer (mouse) = assay: as above
Fes = Fes (UniProt P07332); assay: as above
Fyn = Fyn (UniProt P06241); assay: as above
Hck = Hck (UniProt P08631); assay: as above
Jak2 = Jak2 (UniProt O60674); assay: as above
MERTK = MERTK (UniProt Q12866); assay: as above
c-Abl (mouse) = assay: as above
c-Src = assay: as above
Grb2 SH2 = Grb2 SH2 (UniProt P62993); assay: SH2 binding enrichment of the phosphorylated peptide, bacterial display (enrichment ratio); higher = better substrate or ligand; peptides without Tyr show the background
SHP2-C SH2 = assay: as above
c-Src SH2 = assay: as above
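Throughout, for SH2 binding enrichment of the phosphorylated peptide, bacterial display: peptide library displayed on the E. coli surface as eCPX fusions, selected cells deep-sequenced, score is each peptide's frequency after selection divided by its frequency in the input.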
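Throughout, for phosphorylation enrichment, bacterial display: 11-residue human phosphosite peptides and single-mutation variants displayed on the E. coli surface, counted by deep sequencing, each peptide's frequency after selection divided by its frequency in the unselected input library; frequency after pTyr selection over input frequency; kinase dosed for 20-30% of maximal phosphorylation in three min.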

Sequence of Hck (P08631 whole entry, looked up): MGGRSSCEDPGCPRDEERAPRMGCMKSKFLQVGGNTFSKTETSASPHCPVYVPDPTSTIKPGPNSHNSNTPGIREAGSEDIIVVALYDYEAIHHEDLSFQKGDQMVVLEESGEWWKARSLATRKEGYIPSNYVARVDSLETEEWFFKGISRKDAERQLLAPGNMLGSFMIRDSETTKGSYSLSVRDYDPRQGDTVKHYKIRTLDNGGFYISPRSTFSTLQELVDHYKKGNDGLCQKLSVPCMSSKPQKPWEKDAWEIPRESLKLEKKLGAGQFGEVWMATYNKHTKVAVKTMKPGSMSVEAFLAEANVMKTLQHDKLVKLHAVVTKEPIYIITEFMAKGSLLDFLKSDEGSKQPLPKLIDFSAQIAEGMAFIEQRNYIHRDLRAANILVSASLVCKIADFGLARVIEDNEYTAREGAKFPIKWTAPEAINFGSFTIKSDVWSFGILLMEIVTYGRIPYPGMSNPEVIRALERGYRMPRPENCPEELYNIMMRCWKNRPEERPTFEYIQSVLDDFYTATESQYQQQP
Sequence of Jak2 (O60674 whole entry, looked up): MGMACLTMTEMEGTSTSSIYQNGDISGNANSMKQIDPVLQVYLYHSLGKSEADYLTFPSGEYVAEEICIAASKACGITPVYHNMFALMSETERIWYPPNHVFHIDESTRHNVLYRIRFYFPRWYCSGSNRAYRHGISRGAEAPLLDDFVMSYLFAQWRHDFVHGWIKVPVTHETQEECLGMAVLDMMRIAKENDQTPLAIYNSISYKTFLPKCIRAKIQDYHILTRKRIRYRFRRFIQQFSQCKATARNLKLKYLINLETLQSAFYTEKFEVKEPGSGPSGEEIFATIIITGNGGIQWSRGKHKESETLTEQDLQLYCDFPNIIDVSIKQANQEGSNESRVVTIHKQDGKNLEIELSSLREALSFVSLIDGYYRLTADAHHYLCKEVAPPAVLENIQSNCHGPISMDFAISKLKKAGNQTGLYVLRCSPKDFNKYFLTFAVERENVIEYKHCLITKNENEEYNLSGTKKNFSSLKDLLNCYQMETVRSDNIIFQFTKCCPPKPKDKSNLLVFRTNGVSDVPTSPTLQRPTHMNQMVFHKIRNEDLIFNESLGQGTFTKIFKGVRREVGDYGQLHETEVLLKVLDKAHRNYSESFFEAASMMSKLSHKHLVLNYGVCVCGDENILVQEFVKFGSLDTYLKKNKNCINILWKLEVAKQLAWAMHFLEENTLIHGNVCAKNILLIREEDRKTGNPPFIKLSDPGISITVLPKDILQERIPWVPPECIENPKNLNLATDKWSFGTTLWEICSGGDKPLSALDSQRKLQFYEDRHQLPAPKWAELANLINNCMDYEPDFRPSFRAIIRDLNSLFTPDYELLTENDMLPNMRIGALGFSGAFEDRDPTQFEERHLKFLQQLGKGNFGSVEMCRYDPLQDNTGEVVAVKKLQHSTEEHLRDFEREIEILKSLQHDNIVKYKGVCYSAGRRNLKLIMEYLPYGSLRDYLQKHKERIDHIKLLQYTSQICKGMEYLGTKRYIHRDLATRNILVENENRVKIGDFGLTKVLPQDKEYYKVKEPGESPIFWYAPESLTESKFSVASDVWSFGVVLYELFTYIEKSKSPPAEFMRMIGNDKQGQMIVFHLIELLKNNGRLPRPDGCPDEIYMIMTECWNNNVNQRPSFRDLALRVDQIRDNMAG
Sequence of EPHB1 (P54762 whole entry, looked up): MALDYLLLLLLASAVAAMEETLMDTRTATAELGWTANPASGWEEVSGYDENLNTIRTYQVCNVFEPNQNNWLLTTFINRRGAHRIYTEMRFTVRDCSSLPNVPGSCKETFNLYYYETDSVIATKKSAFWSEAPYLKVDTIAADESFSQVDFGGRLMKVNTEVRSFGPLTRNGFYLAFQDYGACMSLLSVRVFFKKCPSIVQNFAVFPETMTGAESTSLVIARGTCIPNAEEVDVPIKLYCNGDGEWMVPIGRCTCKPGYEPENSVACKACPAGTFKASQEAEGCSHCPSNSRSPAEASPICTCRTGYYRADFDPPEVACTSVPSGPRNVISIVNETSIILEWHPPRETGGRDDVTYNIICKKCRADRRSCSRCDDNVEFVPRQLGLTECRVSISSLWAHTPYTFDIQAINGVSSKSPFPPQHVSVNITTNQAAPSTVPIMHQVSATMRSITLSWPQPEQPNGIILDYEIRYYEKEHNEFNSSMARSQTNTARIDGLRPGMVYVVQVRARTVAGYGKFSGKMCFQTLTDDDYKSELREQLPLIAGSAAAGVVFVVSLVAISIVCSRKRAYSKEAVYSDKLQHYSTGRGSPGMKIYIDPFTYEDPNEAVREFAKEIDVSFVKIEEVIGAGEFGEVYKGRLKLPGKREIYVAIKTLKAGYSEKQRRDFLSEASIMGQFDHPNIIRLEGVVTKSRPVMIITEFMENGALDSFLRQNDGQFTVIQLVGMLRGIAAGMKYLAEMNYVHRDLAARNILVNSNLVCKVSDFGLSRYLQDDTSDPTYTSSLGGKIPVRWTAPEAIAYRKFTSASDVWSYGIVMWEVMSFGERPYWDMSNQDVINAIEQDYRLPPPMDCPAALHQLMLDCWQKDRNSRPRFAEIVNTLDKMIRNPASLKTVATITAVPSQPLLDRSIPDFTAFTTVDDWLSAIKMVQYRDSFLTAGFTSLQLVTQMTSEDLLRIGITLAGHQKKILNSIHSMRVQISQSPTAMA
Sequence of EPHB2 (P29323 whole entry, looked up): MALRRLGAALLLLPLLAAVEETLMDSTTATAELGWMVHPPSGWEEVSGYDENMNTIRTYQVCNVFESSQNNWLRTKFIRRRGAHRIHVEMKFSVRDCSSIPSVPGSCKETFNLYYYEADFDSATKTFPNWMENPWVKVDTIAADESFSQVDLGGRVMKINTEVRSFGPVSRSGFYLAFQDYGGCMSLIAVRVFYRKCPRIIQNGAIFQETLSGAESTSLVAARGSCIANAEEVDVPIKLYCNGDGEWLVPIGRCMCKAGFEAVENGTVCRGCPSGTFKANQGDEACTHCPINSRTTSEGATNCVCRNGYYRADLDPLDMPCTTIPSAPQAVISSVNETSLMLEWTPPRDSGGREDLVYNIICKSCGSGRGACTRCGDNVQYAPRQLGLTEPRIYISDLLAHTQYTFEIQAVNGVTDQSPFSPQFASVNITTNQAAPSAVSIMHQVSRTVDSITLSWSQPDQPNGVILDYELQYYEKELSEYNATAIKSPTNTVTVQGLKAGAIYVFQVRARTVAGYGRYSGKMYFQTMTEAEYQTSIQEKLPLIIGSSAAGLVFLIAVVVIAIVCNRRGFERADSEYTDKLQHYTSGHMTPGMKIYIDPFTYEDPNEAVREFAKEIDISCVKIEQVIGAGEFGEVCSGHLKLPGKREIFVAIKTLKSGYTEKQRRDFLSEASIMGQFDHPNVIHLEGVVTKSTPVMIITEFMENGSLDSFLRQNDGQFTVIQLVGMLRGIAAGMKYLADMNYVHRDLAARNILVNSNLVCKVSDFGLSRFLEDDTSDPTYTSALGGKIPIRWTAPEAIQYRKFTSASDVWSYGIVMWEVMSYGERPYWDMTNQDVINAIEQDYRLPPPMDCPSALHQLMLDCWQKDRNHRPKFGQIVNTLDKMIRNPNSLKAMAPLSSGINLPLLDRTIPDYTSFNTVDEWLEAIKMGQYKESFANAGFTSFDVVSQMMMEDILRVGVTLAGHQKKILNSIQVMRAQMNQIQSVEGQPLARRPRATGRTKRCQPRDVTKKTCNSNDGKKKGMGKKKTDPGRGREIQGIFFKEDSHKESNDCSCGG
Sequence of Fes (P07332 whole entry, looked up): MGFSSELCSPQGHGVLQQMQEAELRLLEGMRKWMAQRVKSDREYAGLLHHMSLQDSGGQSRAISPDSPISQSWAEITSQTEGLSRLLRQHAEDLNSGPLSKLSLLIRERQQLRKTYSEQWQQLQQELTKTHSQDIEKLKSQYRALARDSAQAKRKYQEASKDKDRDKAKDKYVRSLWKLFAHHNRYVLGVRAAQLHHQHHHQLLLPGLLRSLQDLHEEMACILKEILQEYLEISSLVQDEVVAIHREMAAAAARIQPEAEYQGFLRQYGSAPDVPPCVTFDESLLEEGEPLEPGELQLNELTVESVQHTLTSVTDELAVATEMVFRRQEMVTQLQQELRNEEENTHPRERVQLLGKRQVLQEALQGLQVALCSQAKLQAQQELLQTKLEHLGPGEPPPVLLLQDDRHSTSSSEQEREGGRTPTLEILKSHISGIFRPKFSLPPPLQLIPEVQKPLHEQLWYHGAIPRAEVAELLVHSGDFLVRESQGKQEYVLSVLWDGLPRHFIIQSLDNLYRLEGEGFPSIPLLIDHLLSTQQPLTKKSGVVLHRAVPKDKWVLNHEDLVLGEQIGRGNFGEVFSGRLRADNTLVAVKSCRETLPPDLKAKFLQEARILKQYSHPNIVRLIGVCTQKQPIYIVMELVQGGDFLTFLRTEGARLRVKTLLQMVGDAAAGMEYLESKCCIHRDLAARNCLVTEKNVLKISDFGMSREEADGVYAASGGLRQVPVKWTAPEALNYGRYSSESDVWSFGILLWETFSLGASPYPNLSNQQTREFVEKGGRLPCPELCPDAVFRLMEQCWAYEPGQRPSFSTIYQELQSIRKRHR
Sequence of Fyn (P06241 whole entry, looked up): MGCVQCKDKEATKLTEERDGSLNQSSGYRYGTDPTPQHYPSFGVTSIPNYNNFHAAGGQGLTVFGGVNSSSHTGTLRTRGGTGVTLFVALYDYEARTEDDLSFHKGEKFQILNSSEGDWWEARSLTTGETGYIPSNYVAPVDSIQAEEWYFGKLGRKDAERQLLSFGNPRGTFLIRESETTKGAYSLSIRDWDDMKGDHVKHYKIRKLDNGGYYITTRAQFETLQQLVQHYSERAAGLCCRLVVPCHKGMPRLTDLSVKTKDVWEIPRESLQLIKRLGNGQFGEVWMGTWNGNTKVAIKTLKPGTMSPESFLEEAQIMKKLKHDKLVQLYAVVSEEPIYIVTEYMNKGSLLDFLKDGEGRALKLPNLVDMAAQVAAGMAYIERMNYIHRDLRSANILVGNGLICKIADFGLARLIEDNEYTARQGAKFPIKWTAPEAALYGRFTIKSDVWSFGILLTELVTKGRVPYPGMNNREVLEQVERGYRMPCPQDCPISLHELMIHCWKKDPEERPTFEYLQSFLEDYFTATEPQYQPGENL

Sequence	SH2 binding enrichment (Grb2 SH2)	SH2 binding enrichment (SHP2-C SH2)	SH2 binding enrichment (c-Src SH2)	phosphorylation enrichment (AncSZ)	phosphorylation enrichment (EPHB1)	phosphorylation enrichment (EPHB2)	phosphorylation enrichment (FGFR1)	phosphorylation enrichment (FGFR3)	phosphorylation enrichment (Fer (mouse))	phosphorylation enrichment (Fes)	phosphorylation enrichment (Fyn)	phosphorylation enrichment (Hck)	phosphorylation enrichment (Jak2)	phosphorylation enrichment (MERTK)	phosphorylation enrichment (c-Abl (mouse))	phosphorylation enrichment (c-Src)
TSLAQYDSNSK [BMX_Y216]	0.826	0.622	0.438	0.622	0.352	0.568	0.525	0.443	0.37	0.736	0.344	0.428	0.579	0.444	0.543	0.479
GGRIDYIAGLV [APRT_Y60_D65V]	0.692	0.582	0.382	1.19	0.562	0.604	0.496	0.717	0.715	1.11	0.418	0.568	0.871	0.389	0.573	0.423
MKDLTYASLCF [ALOX5_Y446]	0.912	0.737	0.411	1.09	2.65	2.07	0.901	0.946	1.71	1.33	6.75	5.35	1.01	3.15	1.78	5.59
TNFRLYLRSLE [MTM1_Y71_YF]	0.678	0.661	0.449	1.37	0.895	0.782	0.538	0.964	0.612	1.49	0.449	0.513	1.29	0.43	0.798	0.476
LIFTNYEAGKD [GSTP1_Y112_YF]	0.848	0.55	0.499	1.21	0.703	0.571	0.824	0.646	0.453	1.39	0.414	0.582	1.26	0.675	1.24	0.998

Now from value to sequence, other results behind:

SH2 binding enrichment (Grb2 SH2)	SH2 binding enrichment (SHP2-C SH2)	SH2 binding enrichment (c-Src SH2)	Sequence	phosphorylation enrichment (AncSZ)	phosphorylation enrichment (EPHB1)	phosphorylation enrichment (EPHB2)	phosphorylation enrichment (FGFR1)	phosphorylation enrichment (FGFR3)	phosphorylation enrichment (Fer (mouse))	phosphorylation enrichment (Fes)	phosphorylation enrichment (Fyn)	phosphorylation enrichment (Hck)	phosphorylation enrichment (Jak2)	phosphorylation enrichment (MERTK)	phosphorylation enrichment (c-Abl (mouse))	phosphorylation enrichment (c-Src)
0.909	1.22	0.567	MTFMFYRENLR [NLRP14_Y443_V441M_YF]	1.45	0.691	0.724	0.545	0.784	0.705	1.28	0.537	0.518	1.32	0.526	0.879	0.445
0.838	0.776	0.511	SVMAEYGLYAA [VSX2_Y219_G223A]	0.997	3.29	8.04	0.654	0.632	5.85	0.798	7.34	7.6	0.579	2.4	0.799	5.12
0.888	0.87	0.891	KMKGDYYRSLA [YWHAG_Y130_Y133S]	0.54	0.369	0.401	0.718	0.513	0.325	0.562	0.388	0.444	0.616	0.434	0.541	0.389
